This passage reports specific binding of 125I-TAA.62(T) (% of control) results from paper PMC1977871.

This test has as its target 160 kd cell surface receptor (human (endogenous in MDA.MB.231 and 184A1)). The experiment in a line: radioligand binding; competition: 5 nM 125I-labelled TAA.62(T) on MDA.MB.231 monolayers with or without unlabelled peptide (cells preincubated with the growth factors), 2 h at 4 C, EBSS with 20 mM Hepes pH 7.4 and 1% BSA; specific binding as % of control.

Turning to “insulin-like growth factor (from UniProt P05019 49-118) (ligand)”, the specific binding of 125I-TAA.62(T) (% of control) is 97 % of control.
For the substance “transforming growth factor-alpha (from UniProt P01135 40-89) (ligand)”, the specific binding of 125I-TAA.62(T) (% of control) was 98 % of control.
The value for “transforming growth factor-beta (ligand)” was 95 % of control.
The figure for “epidermal growth factor (from UniProt P01133 971-1023) (ligand)” is 102 % of control.
